Experimental data as given in patent publication US9097721B2, “Compositions comprising engineered phosphothreonine affinity reagents, methods of making, and methods of use” (The Board of Trustees of the University of Illinois, priority 2012, dated 2015).
Entries after “also recorded” stand apart in the source; their conditions may differ.

Legend:
Rad9-pT peptide [1] = molecular target: T1, Rad9-pT peptide (Saccharomyces cerevisiae, UniProt P14737); assay: ELISA of GST fusions of FHA1 domains; type: binding, yeast; conditions: expressed in bacterial cytoplasm as GST fusion; listed as WT FHA1 domain
T1 construct: host or cells: chemical synthesis
Description: For production of FHA1-GST fusion protein, BL21 DE3 cells (10 mL; Stratagene) harboring the expression vector was grown overnight at 30° C. using the Overnight Express™ Autoinduction System 1 (Novagen). The next day, cells were lysed using BugBuster® 10× Protein Extraction Reagent (Novagen) following the manufacturer's instructions. Cell lysate (100 μL diluted 1:5 with PBST) was incubated with the biotinylated peptides as described above and detected using anti-GST antibody conjugated to HRP (diluted 1:10,000 with PBST; GE Healthcare).

[2] = molecular target: T2, cognate pT peptide (Rad9-pT) (Saccharomyces cerevisiae, UniProt P14737); assay: FTS assay, Tm shift in the presence of the cognate pT peptide; type: binding, yeast
T2 construct: host or cells: chemical synthesis
Description: The FTS assay was performed on a MxPro-Mx3005P instrument (Stratagene) following the protocol described by Giuliani et al (Giuliani et al. (2008) Biochemistry 47, 13974-84). It is a real-time assay using the SYBR® Green experiment setting with dissociation curve. The default FRROX filter set was used with an excitation wavelength of 492 nm and emission wavelength of 610 nm. FHA1 domains diluted with PBS to 2× final concentration (i.e. 2 μM and 8 μM) were mixed with 10×SYPRO® Orange protein gel stain (Invitrogen; 5000× concentration in DMSO) to give a final dye concentration of 10×. Then, to the protein wells only, 10 μL of the dye+protein mixture was added along with 10 μL of 1×PBS buffer. In other wells, 10 μL of either the pT peptide or its non-phosphorylated form (diluted to 2× final concentration with PBS, i.e. 100 μM and 500 μM) was added to 10 μL of dye+protein mixture. The final reaction volume was 20 μL with final concentrations of 1 μM or 4 μM of FHA1 domains, 50 μM or 250 μM of pT and non-phosphorylated peptides and 5× final concentration of the SYPRO® Orange. The assay was performed in duplicate in 96 well white PCR plates (BIO-Rad) covered with optically clear Microseal® ‘B’ Film (Bio-Rad) and heated from 25° C. to 95° C. and the melting curve was obtained with fluorescence (R) values plotted on the Y-axis and increasing temperature (° C.) on the X-axis. The mid-point of the curve gives the melting temperature (Tm), which shifts to a higher temperature in the presence of the pT peptide.
The Tm values of FHA1 variants were determined by FTS assay (Giuliani et al. (2008) Biochemistry 47, 13974-84). A representative Tm curve for the G2 variant at 1 μM concentration is shown (solid squares), alone and in the presence of the pT peptide (FIG. 11). […] The Tm values of the thermally stable variants (along with WT and D2 variant) at 1 μM and 4 μM concentration, along with the Tm shift in the presence of two different concentrations (50 μM and 250 μM) of the pT peptide, are listed in Table S3.

[3] = molecular target: T3, pT peptide (Rad 9-pT: SLEVpTEADATFYAKK) (Saccharomyces cerevisiae, UniProt P14737); conditions: Durocher et al. (2000); read-out: previously reported Kd by ITC; cited from earlier work
T3 construct: host or cells: chemical synthesis

Rad9-pT peptide [4] = molecular target: T1, Rad9-pT peptide; assay: Phage ELISA of phage-displayed FHA1 domains; type: binding, yeast; conditions: for binding to Rad9-pT peptide when phage-displayed: M13 protein III fusion, DsbA signal sequence; for binding to Rad9-pT peptide when phage-displayed with chaperones: co-expression of dsbA, dsbC, fkpA, skp and surA
Description: To amplify the phage particles displaying the recombinant FHA1 variants, TG1 bacterial cells (5 mL; Stratagene) harboring the phagemid DNA were infected at mid-log (OD600nm=0.5-0.6) with M13K07 helper phage (New England Biolabs) at a multiplicity of infection (MOI) of 20 for 1 h at 37° C. at 150 rpm. Infected cells were centrifuged, and the pellet was resuspended in fresh Luria Bertani medium (LB: 10 g Tryptone, 5 g Yeast extract, and 10 g NaCl per liter) supplemented with 50 μg/mL carbenicillin and 50 μg/ml kanamycin, and phage were amplified overnight at 30° C. at 250 rpm. All of the phage ELISA steps were performed at room temperature. Biotinylated peptides (100 μL, 5 μg/mL) were immobilized on Nunc MaxiSorp flat-bottom 96 well plates (Thermo Fisher Scientific) via NeutrAvidin™ Biotin binding protein (100 μL, 10 μg/mL; Thermo Fisher Scientific) and blocked with 2% skim milk in 1×PBS (200 μL per well). After washing with Phosphate Buffered Saline (PBS: 0.14 M Sodium Chloride, 0.003 M Potassium Chloride, 0.002 M Potassium Phosphate, and 0.01 M Sodium Phosphate), the wells were incubated with the phage supernatant (100 μL of phage diluted 1:2 with PBS containing 0.1% Tween 20 (PBST)) for 1 h and washed three times with PBST. The binding phage were detected using anti-M13 antibody conjugated to horse radish peroxidase (HRP) (GE Healthcare) diluted 1:5000 with PBST. After washing away the unbound antibody, the chromogenic substrate for HRP; 2,2′-Azinobis (3-ethylbenzothiazoline-6-Sulfonic Acid) diammonium salt (Thermo Fisher Scientific), supplemented with hydrogen peroxide was added (100 μL per well), and the absorbance of the green colored complex was measured at 405 nm on POLARstar OPTIMA microtiter plate reader (BMG Labtech).

binding to Rad9-pT peptide when phage-displayed (Rad9-pT peptide [4]): non-functional
binding to Rad9-pT peptide when phage-displayed (Rad9-pT peptide [4]; listed as WT FHA1 domain): did not bind
binding to Rad9-pT peptide when phage-displayed (Rad9-pT peptide [4]; listed as wild-type (WT) FHA1 domain): no binding was detected
binding to Rad9-pT peptide when phage-displayed via TorA signal sequence (Rad9-pT peptide [4]; listed as WT FHA1 domain): only partially restored
binding to Rad9-pT peptide when phage-displayed with chaperones (Rad9-pT peptide [4]): remained nonfunctional
binding to Rad9-pT peptide when phage-displayed with chaperones (Rad9-pT peptide [4]; listed as WT FHA1 domain): did not restore the activity
B1: WT: N-terminal FHA1 domain of S. cerevisiae Rad53 protein kinase, residues 1-170 (SEQ ID NO:7) (protein, listed as Saccharomyces cerevisiae)
chain: MENITQPTQQSTQATQRFLIEKFSQEQIGENIVCRVICTTGQIPIRDLSADISQVLKEKRSIKKVWTFGRNPACDYHLGNISRLSNKHFQILLGEDGNLLLNDISTNGTWLNGQKVEKNSNQLLSQGDEITVGVGVESDILSLVIFINDKFKQCLEQNKVDRIRSNLKNT
binding of GST fusion to Rad9-pT peptide (Rad9-pT peptide [1]): bound specifically; also recorded: showed specific binding
Tm shift (° C.) in the presence of pT peptide ([2]; 50 μM pT peptide, protein 1 μM): 1.7 °C
Tm shift (° C.) in the presence of pT peptide ([2]; 50 μM pT peptide, protein 4 μM): 1.95 °C
Tm shift (° C.) in the presence of pT peptide ([2]; 250 μM pT peptide, protein 1 μM): 3.8 °C
Tm shift (° C.) in the presence of pT peptide ([2]; 250 μM pT peptide, protein 4 μM): 3.55 °C
Kd [3]: 530 nM
binding to Rad9-pT peptide when phage-displayed via TorA signal sequence (Rad9-pT peptide [4]): only detected when the phage particles were concentrated 50 times
